Experimental data reported in patent US20230357422A1 (published 2023).

target: T1, 4-1BB antigen (human, UniProt Q07011 24-186, limits assumed); experiment: BLI (ForteBio), antibody on AHQ sensor, 100 nM 4-1BB antigen, 1:1 model
T1 construct: also called human 4-1BB antigen; human 4-1BB protein
Experimental: ForteBio affinity determination was performed according to the existing method (Estep, P et al., Solution-based measurement of high-throughput antibody-antigen affinity and epitope classification, MAbs, 2013.5(2):p. 270-8). Briefly, the sensor was equilibrated offline for 30 min in the assay buffer, then the baseline was established by detection online for 60 s, and the purified antibody obtained as described above was loaded onto the AHQ sensor online. Then, the sensor was put into 100 nM 4-1BB antigen to act for 5 minutes, and the sensor was transferred to PBS and dissociated for 5 minutes. Analysis of kinetics was performed using a 1:1 binding model.

T1 sequence (Q07011 24-186 limits assumed): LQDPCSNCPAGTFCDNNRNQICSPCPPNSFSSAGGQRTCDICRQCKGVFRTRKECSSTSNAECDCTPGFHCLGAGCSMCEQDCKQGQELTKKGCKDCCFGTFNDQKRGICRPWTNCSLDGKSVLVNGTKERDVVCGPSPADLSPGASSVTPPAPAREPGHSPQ

| Kd [nM] | Binder |
| --- | --- |
| 33.5 | L-Yr-13&14-05 (Fc fusion) QVQLQESGGGLVQAGGSLRLSCAASGRTLSGYVMGWFRQASGKERELVAAISSGGSTYYEDSVKGRFTISRDNAKNTMYLQMNSLKPEDTAVYYCAADPRRLTGLYDYWGQGTQVTVSSTHTCPPCPAPEAAGGPSVFLFPPKPKDTLMISRTPEVTCVVVDVSHEDPEVKFNWYVDGVEVHNAKTKPREEQYNSTYRVVSVLTVLHQDWLNGKEYKCKVSNKALPAPIEKTISKAKGQPREPQVYTLPPSREEMTKNQVSLTCLVKGFYPSDIAVEWESNGQPENNYKTTPPVLDSDGSFFLYSKLTVDKSRWQQGNVFSCSVMHEALHNHYTQKSLSLSPG |
| 19.5 | L-Yr-13&14-01 (Fc fusion) QVQLQESGGGLVQAGGSLRLSCAASGSFNAMGWWRQAPGKQREFVAIITRDGSTNLADSVKGRFTISSDNAKNTWFLQMNSLKPEDTAVYYCSASDYGSSLYYWGQGTQVTVSSTHTCPPCPAPEAAGGPSVFLFPPKPKDTLMISRTPEVTCVVVDVSHEDPEVKFNWYVDGVEVHNAKTKPREEQYNSTYRVVSVLTVLHQDWLNGKEYKCKVSNKALPAPIEKTISKAKGQPREPQVYTLPPSREEMTKNQVSLTCLVKGFYPSDIAVEWESNGQPENNYKTTPPVLDSDGSFFLYSKLTVDKSRWQQGNVFSCSVMHEALHNHYTQKSLSLSPG |
| 26.8 | A-Ye-20 (Fc fusion) QVQLQESGGGLVQAGGSLRLSCAASGFTFDDYAIGWFRQAPGKEREGVLCISSSGGSTYYADSVKGRFTISRDNAKNTVYLQMTNLKPEDTAVYLCGAPRDCSYYTSDDYWGQGTQVTVSSTHTCPPCPAPEAAGGPSVFLFPPKPKDTLMISRTPEVTCVVVDVSHEDPEVKFNWYVDGVEVHNAKTKPREEQYNSTYRVVSVLTVLHQDWLNGKEYKCKVSNKALPAPIEKTISKAKGQPREPQVYTLPPSREEMTKNQVSLTCLVKGFYPSDIAVEWESNGQPENNYKTTPPVLDSDGSFFLYSKLTVDKSRWQQGNVFSCSVMHEALHNHYTQKSLSLSPG |
| 13.5 | A-Ye-25 (Fc fusion) QVQLQESGGGLVQVGGSLRLSCAASGFTFDDYAIGWFRQAPGKEREGVLCISSSGGSTYYADSLKGRFTISRDNAKNTVYLQMTNLKPEDTAVYLCGAPRDCSLYTGDDYWGQGTQVTVSSTHTCPPCPAPEAAGGPSVFLFPPKPKDTLMISRTPEVTCVVVDVSHEDPEVKFNWYVDGVEVHNAKTKPREEQYNSTYRVVSVLTVLHQDWLNGKEYKCKVSNKALPAPIEKTISKAKGQPREPQVYTLPPSREEMTKNQVSLTCLVKGFYPSDIAVEWESNGQPENNYKTTPPVLDSDGSFFLYSKLTVDKSRWQQGNVFSCSVMHEALHNHYTQKSLSLSPG |
| 7.55 | A-Ye-27 (Fc fusion) QVQLQESGGGLVQPGGSLRLSCAASGFSLGLYAIGWFRQAPGKEREWVSCIMSSDSSAYYADSVKGRFTVSRDNAKNTVYLQMTNLKPEDTAVYLCGAPRDCSRYSSDDYWGQGTQVTVSSTHTCPPCPAPEAAGGPSVFLFPPKPKDTLMISRTPEVTCVVVDVSHEDPEVKFNWYVDGVEVHNAKTKPREEQYNSTYRVVSVLTVLHQDWLNGKEYKCKVSNKALPAPIEKTISKAKGQPREPQVYTLPPSREEMTKNQVSLTCLVKGFYPSDIAVEWESNGQPENNYKTTPPVLDSDGSFFLYSKLTVDKSRWQQGNVFSCSVMHEALHNHYTQKSLSLSPG |
| 20.6 | L-Yr-13&14-06 (Fc fusion) QVQLQESGGGLVEAGGSLRLSCAASGSIFSINVMGWYRQAPGKQRELVAVITSDYSTNYADSVKGRFTISRDNAKNTVYLQMNSLKPEDTAVYHCAATGYGSSPWYWGQGTQVTVSSTHTCPPCPAPEAAGGPSVFLFPPKPKDTLMISRTPEVTCVVVDVSHEDPEVKFNWYVDGVEVHNAKTKPREEQYNSTYRVVSVLTVLHQDWLNGKEYKCKVSNKALPAPIEKTISKAKGQPREPQVYTLPPSREEMTKNQVSLTCLVKGFYPSDIAVEWESNGQPENNYKTTPPVLDSDGSFFLYSKLTVDKSRWQQGNVFSCSVMHEALHNHYTQKSLSLSPG |
| 19.1 | L-Yr-13&14-03 (Fc fusion) QVQLQESGGGLVQPGESLRLSCDSGRIFSYNFMGWYRQAPGKQRELVASITWGGTIKYADSVKGRFTISRHDAENTVYLQMNSLKSEDTAVYYCHAATDTGVIYWGQGTQVTVSSTHTCPPCPAPEAAGGPSVFLFPPKPKDTLMISRTPEVTCVVVDVSHEDPEVKFNWYVDGVEVHNAKTKPREEQYNSTYRVVSVLTVLHQDWLNGKEYKCKVSNKALPAPIEKTISKAKGQPREPQVYTLPPSREEMTKNQVSLTCLVKGFYPSDIAVEWESNGQPENNYKTTPPVLDSDGSFFLYSKLTVDKSRWQQGNVFSCSVMHEALHNHYTQKSLSLSPG |
| 14.5 | A-Ye-14 (Fc fusion) QVQLQESGGGLVQPGGSLRLSCAASGFSLGLYAIGWFRQAPGKEREWVSCIMSSDSSAYYADSVKGRFTVSRDNAKNTVYLQMNRLKPEDTAVYYCAAPQSDCFHYSENDYWGQGTQVTVSSTHTCPPCPAPEAAGGPSVFLFPPKPKDTLMISRTPEVTCVVVDVSHEDPEVKFNWYVDGVEVHNAKTKPREEQYNSTYRVVSVLTVLHQDWLNGKEYKCKVSNKALPAPIEKTISKAKGQPREPQVYTLPPSREEMTKNQVSLTCLVKGFYPSDIAVEWESNGQPENNYKTTPPVLDSDGSFFLYSKLTVDKSRWQQGNVFSCSVMHEALHNHYTQKSLSLSPG |
| 23.4 | A-Ye-23 (Fc fusion) QVQLQESGGGLVQPGGSLRLSCAASGFSLGLYAIAWFRQAPGKEREWVSCIEKSDSSAYYADSVKGRFTVSRDNAKNTVDLQMNRLSPEDTAVYYCAAPQSDCFHYKENDYWGQGTQVTVSSTHTCPPCPAPEAAGGPSVFLFPPKPKDTLMISRTPEVTCVVVDVSHEDPEVKFNWYVDGVEVHNAKTKPREEQYNSTYRVVSVLTVLHQDWLNGKEYKCKVSNKALPAPIEKTISKAKGQPREPQVYTLPPSREEMTKNQVSLTCLVKGFYPSDIAVEWESNGQPENNYKTTPPVLDSDGSFFLYSKLTVDKSRWQQGNVFSCSVMHEALHNHYTQKSLSLSPG |
| 13 | A-Ye-19 (Fc fusion) QVQLQESGGGLVQAGGSLRLSCAASGFSLGLYAIGWFRQAPGKEREWVSCIMSSDSSAYYADSVKGRFTVSRDNAKNTVYLQMNRLKPEDTAVYYCAAPQSDCFHYSENDYWGQGTQVTVSSTHTCPPCPAPEAAGGPSVFLFPPKPKDTLMISRTPEVTCVVVDVSHEDPEVKFNWYVDGVEVHNAKTKPREEQYNSTYRVVSVLTVLHQDWLNGKEYKCKVSNKALPAPIEKTISKAKGQPREPQVYTLPPSREEMTKNQVSLTCLVKGFYPSDIAVEWESNGQPENNYKTTPPVLDSDGSFFLYSKLTVDKSRWQQGNVFSCSVMHEALHNHYTQKSLSLSPG |
| 23 | A-Ye-21 (Fc fusion) QVQLQESGGGLVQPGGSLRLSCAASGFSLDYYAIGWFRQAPGKEREWVSCIMSSDSSAYYADSVKGRFTISRDNAKNLVYLRMNSLKPEDTAVYYCTAPRSDCFHYGENDYWGQGTQVTVSSTHTCPPCPAPEAAGGPSVFLFPPKPKDTLMISRTPEVTCVVVDVSHEDPEVKFNWYVDGVEVHNAKTKPREEQYNSTYRVVSVLTVLHQDWLNGKEYKCKVSNKALPAPIEKTISKAKGQPREPQVYTLPPSREEMTKNQVSLTCLVKGFYPSDIAVEWESNGQPENNYKTTPPVLDSDGSFFLYSKLTVDKSRWQQGNVFSCSVMHEALHNHYTQKSLSLSPG |
| 22.6 | A-Ye-22 (Fc fusion) QVQLQESGGGLVQAGGSLRLSCAASGFSLDYYAIGWFRQAPGKEREWVSCITASDSSAYYADSVKGRFTISRDNAKNTVYLRMNSLKPEDTAVYYCAAPRSDCFHYGENDYWGQGTQVTVSSTHTCPPCPAPEAAGGPSVFLFPPKPKDTLMISRTPEVTCVVVDVSHEDPEVKFNWYVDGVEVHNAKTKPREEQYNSTYRVVSVLTVLHQDWLNGKEYKCKVSNKALPAPIEKTISKAKGQPREPQVYTLPPSREEMTKNQVSLTCLVKGFYPSDIAVEWESNGQPENNYKTTPPVLDSDGSFFLYSKLTVDKSRWQQGNVFSCSVMHEALHNHYTQKSLSLSPG |

target: T2, human 4-1BB on CHO cells (human, UniProt Q07011 24-255); experiment: flow cytometry on CHO cells expressing human 4-1BB
T2 construct: whole, on cells; also called CHO-h4-1BB cells; human 4-1BB CHO-S cells
T2 sequence (Q07011 24-255): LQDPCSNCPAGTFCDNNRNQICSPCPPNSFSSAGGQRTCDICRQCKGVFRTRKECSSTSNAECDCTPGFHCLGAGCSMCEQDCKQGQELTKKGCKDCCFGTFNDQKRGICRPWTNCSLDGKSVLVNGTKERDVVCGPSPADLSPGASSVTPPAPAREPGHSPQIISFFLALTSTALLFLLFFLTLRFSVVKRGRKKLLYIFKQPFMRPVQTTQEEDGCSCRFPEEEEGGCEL
Experimental: CHO cells overexpressing human 4-1BB (CHO-h4-1BB cells) were generated by transfection of pCHO1.0 vector (purchased from Invitrogen) encoding human 4-1BB cDNA cloned into MCS (multiple cloning site). The cell density of the expanded CHO-h4-1BB cells was adjusted to 2×10⁶ cells/ml, added at 100 μl/well to a 96-well flow plate, and centrifuged for later use. The purified 4-1BB antibody was diluted with PBS by 3-fold dilution starting from 400 nM for a total of 12 points. The above-mentioned diluted sample was added at 100 μl/well to the above-mentioned 96-well flow plate with cells, incubated at 4° C. for 30 min, and washed twice with PBS. Goat F(ab′)2 anti-human IgG-Fc (PE) (purchased from Abcam) diluted 100 times with PBS was added at 100 μl/well, incubated at 4° C. for 30 min, and washed twice with PBS. The cells resuspended with PBS was added at 100 μl/well, and detected on CytoFlex (Bechman) flow cytometer, and the corresponding MFI was calculated.

| binding result | Binder |
| --- | --- |
| binds | Hu-A-NA-19-1 (Fc fusion, also called HZ-A-Na-19-1) EVQLVESGGGLVKPGGSLRLSCAASGAIFRINTGAWYRQAPGKQRELVASLTTYGKTTYADFVKGRFTISRDDSKNTLYLQMNSLKTEDTAVYYCHIGPEPRYGYWGQGTLVTVSSTHTCPPCPAPEAAGGPSVFLFPPKPKDTLMISRTPEVTCVVVDVSHEDPEVKFNWYVDGVEVHNAKTKPREEQYNSTYRVVSVLTVLHQDWLNGKEYKCKVSNKALPAPIEKTISKAKGQPREPQVYTLPPSREEMTKNQVSLTCLVKGFYPSDIAVEWESNGQPENNYKTTPPVLDSDGSFFLYSKLTVDKSRWQQGNVFSCSVMHEALHNHYTQKSLSLSPG |
| binds | HZ-L-Yr-13&14-16-2 (Fc fusion) QVQLVESGGGVVQPGRSLRLSCAASGSTFSIVAMGWYRQAPGKGLELVASIITGDGDTNYADSVKGRFTISRDNSKNTMYLQMNSLRAEDTAVYYCYARTGYGSSWLMGHEYDYWGQGTQVTVSSTHTCPPCPAPEAAGGPSVFLFPPKPKDTLMISRTPEVTCVVVDVSHEDPEVKFNWYVDGVEVHNAKTKPREEQYNSTYRVVSVLTVLHQDWLNGKEYKCKVSNKALPAPIEKTISKAKGQPREPQVYTLPPSREEMTKNQVSLTCLVKGFYPSDIAVEWESNGQPENNYKTTPPVLDSDGSFFLYSKLTVDKSRWQQGNVFSCSVMHEALHNHYTQKSLSLSPG |
